Legend:
Experiment in all cases: luciferase complementation assay
[1] = target: C1-fused SRC kinases (mean among the nine SRC kinases); conditions: HEK293T cells
[2] = target: N1-fused SRC kinases (mean among the nine SRC kinases); conditions: HEK293T cells
[3] = target: DomDIM1 SKAP1 mutant (DIM domain of SKAP1); conditions: HEK293T cells; read off a plot
[4] = target: N2-SKAP2 DomDIM2 deletion mutant (DIM domain alone); conditions: HEK293T cells; read off a plot
[5] = target: N2-SKAP2 (SRC kinase adaptor phosphoprotein 2, wildtype) (UniProt O75563); conditions: HEK293T cells, read off a plot

Row | Substance | ratio to parent [1] | ratio to parent [2] | response (NLR normalized to HCK-N1) [3] | response (NLR normalized to HCK-N1) [4] | further results
1 | N2-SKAP2 (SRC kinase adaptor phosphoprotein 2, wildtype) (from UniProt O75563) K161E | 0.9 | 1.12 |  |  | 
2 | N1-fused HCK (hematopoietic cell kinase), wildtype (from UniProt P08631-2) Y390F |  |  | 0.7 |  | 
3 | N2-SKAP2 (SRC kinase adaptor phosphoprotein 2, wildtype) (from UniProt O75563) D129K | 2.27 | 1.55 |  |  | 
4 | N2-SKAP2 (SRC kinase adaptor phosphoprotein 2, wildtype) (from UniProt O75563) V24D; F27G; V28E; D129K | 1.04 | 0.93 |  |  | 
5 | N2-SKAP2 (SRC kinase adaptor phosphoprotein 2, wildtype) (from UniProt O75563) Y75F; Y237F; Y261F | 1.01 | 0.76 |  |  | 
6 | N2-SKAP2 (SRC kinase adaptor phosphoprotein 2, wildtype) (from UniProt O75563) E15A; R18A; V24D; F27G; V28E | 0.48 | 0.41 |  |  | 
7 | N2-SKAP2 (SRC kinase adaptor phosphoprotein 2, wildtype) (from UniProt O75563) W336K | 1.48 | 1.64 |  |  | 
8 | N2-SKAP2 (SRC kinase adaptor phosphoprotein 2, wildtype) (from UniProt O75563) R140M; D129K | 0.86 | 0.84 |  |  | 
9 | N2-SKAP2 (SRC kinase adaptor phosphoprotein 2, wildtype) (from UniProt O75563) R140M | 0.79 | 0.96 |  |  | 
10 | C1-fused HCK (hematopoietic cell kinase), wildtype (from UniProt P08631-2) Y501F |  |  | 3.8 | 7.7 | 
11 | N1-fused HCK (hematopoietic cell kinase), wildtype (from UniProt P08631-2) W234A |  |  |  | 0.6 | 
12 | C1-fused HCK (hematopoietic cell kinase), wildtype (from UniProt P08631-2) Y390F |  |  | 0.42 | 3.8 | 
13 | N1-fused HCK (hematopoietic cell kinase), wildtype (from UniProt P08631-2) Y30F |  |  | 0.9 | 1.2 | 
14 | N1-fused HCK (hematopoietic cell kinase), wildtype (from UniProt P08631-2) Y501F |  |  | 7 | 6.4 | 
15 | N2-SKAP2 (SRC kinase adaptor phosphoprotein 2, wildtype) (from UniProt O75563) E15A; R18A | 1.19 | 1.3 |  |  | 
16 | N2-SKAP2 (SRC kinase adaptor phosphoprotein 2, wildtype) (from UniProt O75563) Y151F; Y197F | 0.71 | 0.8 |  |  | 
17 | C1-fused HCK (hematopoietic cell kinase), wildtype (from UniProt P08631-2) R150A |  |  | 2.9 | 8.4 | 
18 | N1-fused HCK (hematopoietic cell kinase), wildtype (from UniProt P08631-2) R150A |  |  | 8.4 | 7.7 | 
19 | C1-fused HCK (hematopoietic cell kinase), wildtype (from UniProt P08631-2) Y30F |  |  | 0.055 | 0.13 | 
20 | N2-SKAP2 (SRC kinase adaptor phosphoprotein 2, wildtype) (from UniProt O75563) D129K; Y75F; Y237F; Y261F | 1.63 | 0.88 |  |  | 
21 | N2-SKAP2 (SRC kinase adaptor phosphoprotein 2, wildtype) (from UniProt O75563) V24D; F27G; V28E | 0.41 | 0.43 |  |  | 
22 | N1-fused HCK (hematopoietic cell kinase), wildtype (from UniProt P08631-2) I309A; T311A |  |  | 0.65 | 0.9 | response (NLR normalized to HCK-N1) [5]: 1
23 | C1-fused HCK (hematopoietic cell kinase), wildtype (from UniProt P08631-2) I309A; T311A |  |  | 0.07 | 0.29 | response (normalized NLR) ([5]; parent: est. 85): 16; response (NLR normalized to HCK-N1) [5]: 0.1
